assay: yeast display, Sf9 membrane polyspecificity reagent, FACS + sequencing; frameworks hold sequencing errors
In short: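 A synthetic nanobody library was expressed on Saccharomyces cerevisiae BJ5465 by galactose induction for 36–48 hours. The library was stained for 1 hour at 4 °C with 10% biotinylated, detergent-solubilized Sf9 membrane reagent and enriched with streptavidin microbeads before FACS. Low and high (top ~1%) gates were set on anti-HA fluorescence for expression and streptavidin fluorescence for reagent binding, and each polyreactivity label reflects the gate of origin.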

Row | Sequence | polyreactivity (PSR sort gate)
1 | QVQLVESGGGLVQAGGSLRLSSAASGSTFGPYAMGWYRQAPGKERELVAAISRRGTSTYYADSVKGRFTISRDNAKNTVYLQMNSLKPEDTAVYYCNAVTSSFFNRDSDYWGQGNQVTVSS | high polyreactivity
2 | QVQLVESGGGLVQAGGSLRLSSAASGSTFPVYALGWYRQAPGKERELVAAITRTGARTYYADSVKGRFTISRDNAKNTVYLQMNSLTPEDTAVYYCAARGAGGILGRYGYWGQGTKVTVSS | high polyreactivity
3 | QVQLVESGGGLVQAGGSLRLSSAASGSTFRRNAMGWYRQAPGKQRELVAAITWRGTSTYYADSVKGRFTISRDNAKNTVYLQMNSLKPEDTAVDYCAAPWVVRRTAYDYWGQGTQVTVSS | high polyreactivity
4 | QVQLVESGGGLVQAGGSLRLSSAASGSTIFLYDMGWYRQAPGKERELVAAITISGGSTYYADSVKGRFTISRDNAKNTVYLQMNSLKPEDTAVYYCAVRTYRFRHWPKYDYWGQGTQVTVSS | high polyreactivity
5 | QVQLVESGGGLVQAGGSLRLSSAASGSTVPRYAMGWDRQAPGKERAFVAVIWSGGSTYYAVSVKGRFTISRDNAKNTVYLQMNSLKPEDTAVYYCAAEYHTLSKYSGYATHDYWGQGTQVTVSS | low polyreactivity
6 | QVQLVESGGGLVQAGGSLRLSSAASGTTFAPNAMGWYRPAPGKERELVAAISSGGDSTNYADSVKGRFTISRDNAKNTVYLQLNSLKPEDTAVYYCAAHYVEREYDYWGQGTQVTVSS | low polyreactivity
7 | QVQLVESGGGLVQAGGSLRLSSAASRSTFTVYAMGWYRQAPGKETELVAAITGGGRTYYADSVKGRFTISRDNAKNTVYLQMNSLKPEDTAVYYCAKKYSWRYARVYSLHFDYWGQGTQVTVSS | high polyreactivity
8 | QVQLVESGGGLVQAGGSLRLSSADSGRTFRYYAMRWYRPAPGKERELVAAITRGGRTNYADSVKGRFTISRDNAKNTVYLQMNSLKPEDTAVYYCAAVLYTPNKYASYYWGQGTQVTVSS | high polyreactivity
9 | QVQLVESGGGLVQAGGSLRLSSAPSGSTFYGYSRGWYRPAPGKERELVAAISSRGGSTKYADSVKGRFTISRDNAKNTVYLQMNSLKPEDTAVYYCAATSRSSRRYYYWGQGTQVTVSS | high polyreactivity
10 | QVQLVESGGGLVQAGGSLRLSSASSGRIFPDNTMGWYRQAPGKERELVAVITYSGGSTYYADSVKGRFTISRDNAKNTVYLQMNSLKPDDTAVYYCAARDYYIWFAEVDYWGQGTQVTVSS | low polyreactivity
11 | QVQLVESGGGLVQAGGSLRLSSASSGSIFTDNGMGCYRHAPGKESELVAAISWRGGTYYADSVKGRFTISRDNAKNTVYLQMNSLKPEDSAVYYSAADVLRISTRLFRGPGFDSWGQGTQVTVSS | low polyreactivity
12 | QVQLVESGGGLVQAGGSLRLSSASSGSIIFLYTMGWYRQAPGKERELVAAIDSVGSTNYADSVKGRFTISRDNAKNTVYLHMNSLKPEDTAVYYCNAYFWVGLYEYDYWGQGTQVTVSS | low polyreactivity
13 | QVQLVESGGGLVQAGGSLRLSSPASGYIISTYVMGWYRQAPGKERDLVAAITRSGGSTYYADSVKGRFTISRDNAKNNVYLQMNSLKPEDTAVYYCNAYLYLYGLSGRYDYWGQGTQVTVSS | high polyreactivity
14 | QVQLVESGGGLVQAGGSLRLSVAASGRTFYSYSMGWYRQAHGKERELVASITNGETKNYADSVKGRFTISRDNAKNTVYLQMNSLKPEDTAVYYCAADDSSRTTYDYWGQGTQVTVSS | low polyreactivity
15 | QVQLVESGGGLVQAGGSLRLSWAASGFIFDPNAMGWYRQAPGKERDLVAAISSSGGRTYYADSVKGRFTISRDNAKNTVYLQMNSLKPEDTAVYYCATDTSVQGQEYDYWGQGTQVTVSS | low polyreactivity
16 | QVQLVESGGGLVQAGGSLRLSWAASGGTFVPYAMGWYRQAPGTERELVARISKRGGTTYYADSVKGRFTISRDNAKYTVYLQMNSLKPEDTAVYYCAAVLPARGYYWGQGTQVTVSS | high polyreactivity
17 | QVQLVESGGGLVQAGGSLRLSWAASGITFDLYAMGWYRPAPGKEREFVATISWTGGTTYYADSVKGRFTISRDNAKNTVDLQMISLKPEVPAASYCNKGSDFFWYDYDYCGQGTQVTVSS | low polyreactivity
18 | QVQLVESGGGLVQAGGSLRLSWAASGRIFASYAMGWYRQATGKERELVAAISGSGGSTYYADSVKGRFTMSRDNAKKTVYLQLNSLKPEDTAVYYCAARYRSYWYRYVGYDYWGQGTQVNVSS | high polyreactivity
19 | QVQLVESGGGLVQAGGSLRLSWAASGRTFQYYTMGWYRQAPGKERELVAAISTGGSTHYADSVKGRFTISRDNAKNTVYLQMNSLKPEDTAVYYCAALWSRRRSRPRFPGDYWGQGTQVTVSS | high polyreactivity
20 | QVQLVESGGGLVQAGGSLRLSWAASGSIFYQNPMGSYRQAPGKERELVAAISSAGSTYYADSVKGRFTISRDNAKNTVYLQMNSLKPADTAVYYCAADDLGWWFYSGGEDYYYWGQATQVTVSS | low polyreactivity
21 | QVQLVESGGGLVQAGGSLRLSWAASGSISGFNAMGWYRQAPGKERELVAAISYSGGRTYYADSVKGRFTISRDNAKNNVYLHMNSLKPEDTAVFYCAADKFMYSKYTVFRDVYWGQGTQVTLSS | high polyreactivity
22 | QVQLVESGGGLVQAGGSLRLSWAASGSTFAWYAMGWYRQAPGKDRELVATISSGGSTYYADSVKGRFTISRDNAKNTVYLQMNSLKTEDTAVYYCAADYLTPWVYWFSYGLDYWGQGTQVTVSS | low polyreactivity

Row | Sequence | polyreactivity (PSR sort gate)
23 | QVQLVESGGGLVQAGGSLRLSWAASGSTFAYNDMGWYRQAPGKERELVASITSGGSTNYADSVKGRFTISRDNAKNTVYLQMNSLKPEDTAVYYCAARVRYRFDYWGQGTQVTVSS | low polyreactivity
24 | QVQLVESGGGLVQAGGSLRLSWAASGSTFNVYAMGWYRQAPGKERELVAGIRDSDGSTNYADSVKGRFTISRDNAKNTVYLQMNSLKPEDTAVYYCAADLYDINWSVWLDYWGQGTQVTVSS | low polyreactivity
25 | QVQLVESGGGLVQAGGSLRLSWAASGSTFVVNAMGWYRQAPGKERELVAAITQDGDGTYYADSVKGRFTISRDNAKNTVYLQMNSLKPEDTAVYYCAAYPFYGPYDEFDYWGQGTEVTVSS | low polyreactivity
26 | QVQLVESGGGLVQAGGSLRLSWAASSIFRTYAMGWYRQAPGKERELVAAITWSGASTNYADSVKGRFTISRDNAKNTVYLQMNSLKPEDTAVYYCNADWRYYPSFKYYYWGQGTQVTVSS | high polyreactivity
27 | QVQLVESGGGLVQAGGSLRLSYAASGSTFRVYAMGWYRPATGKERELVAAISRSGGRTYYADSVKGRFTISRDNAKNTVYLQMNSLKPEDTAVYYCAADYKYTAVSDDYWGQGTQVTVSS | high polyreactivity
28 | QVQLVESGGGLVQAGGSLRLTCAASGFIFGYNAMGWYRQAPGKERELVAAISSSGGSTYYADSVKGRFTISRDNAKNTVSLQMNSLKPEDTAVYYCAARPVALRKYDYWGQGTQVTVSS | low polyreactivity
29 | QVQLVESGGGLVQAGGSLRLTCAASGFIFRYYAMGWYRQAHGKEMELVAAIDYSGGSTNYADSVKGRFTISRDNSKNTVYLQMNSLKPEDTAVYYCKAEYTWHRGYDYWGLGTQVTVSS | low polyreactivity
30 | QVQLVESGGGLVQAGGSLRLTCAASGFTFNRYTMGWYRQAPGKERELVAAITRSGGSTYYADSVKGRFTISRDNAKNTVDLQMNSLKPEDTAVYYCAAPSYLVAGYGYWGQGTQVTLSS | high polyreactivity
31 | QVQLVESGGGLVQAGGSLRLTCAASGFTFPSYPMVWYRQAPGKERELVAAITRSGVRTYYADSVKGRFTISRDNAKNTVYFQMNSLKPEDTAVYYCAAVYPRQVSQVWRDDFWGQGTQVTVSS | high polyreactivity
32 | QVQLVESGGGLVQAGGSLRLTCAASGFTFRYYAMGWYRQAPGKERELVASITGGGRTYYADSVKGRFTISRDNAKNTVYLQMNSLKPEDTAVYYCATLLAYRLGSGYDSWGQGTEVTVSS | high polyreactivity
33 | QVQLVESGGGLVQAGGSLRLTCAASGFTFSQYVMGWYRQAPGKERELVAAISYRGGSTYYADSVKGRFTISRDKAKNTVYLQLNSLKPEDTAVYYCAAVAYSWHNRYDYWGQGTQVTVSS | high polyreactivity
34 | QVQLVESGGGLVQAGGSLRLTCAASGFTFTGNAMGWYRQAPGKEREFVAAISWSGGSTYYADSVKGRFTISRDNAKNTVYLQMNSLKPEDTAVYYCNKYRPYGRIYHLAYGRDYWGQGTQVTVSS | high polyreactivity
35 | QVQLVESGGGLVQAGGSLRLTCAASGFTFWWYTMGWYRQATGKERELVATITSGGRTNYADSVKGRFTISRDNAKNTVYLQMNSLKPEDTAVYYCNRVAYYSRYDTDDYWGQGTQVTVSS | high polyreactivity
36 | QVQLVESGGGLVQAGGSLRLTCAASGFTIAWNAMGWYRPSPGKERELVAAISAGGGSTYYADSVKGRFTISRDNAKNTVYLQMNSLKPEDTAVYYCAARRTFKYGSYAYYYWGQGTQVTVSS | high polyreactivity
37 | QVQLVESGGGLVQAGGSLRLTCAASGGIFSYNAMGWYRQAPGKERELVAAISDSSTRTYYADSVKGRFTISRDNAKNTVYLQIKSLKPEDTAVYYCAARHSRTRHTSDYWGQGTQVTVSS | high polyreactivity
38 | QVQLVESGGGLVQAGGSLRLTCAASGGIFYKYAKGWYRQAPGKEMELVAAITGRGGSTNYADSVKVRFTISRDNAKNTVYLQMNSLKPEDTAVYYCAARYTPTWSYGYWGQGTQVTVSS | low polyreactivity
39 | QVQLVESGGGLVQAGGSLRLTCAASGIIFRVYAMGWYRQATGKERELVAAISQRGGSTYYADSVKGRFTISRDNAKNTVYLLMNSLKPEDTAVYYCAATAPAAAYRARYGYDYWGQGTQVTVSS | high polyreactivity
40 | QVQLVESGGGLVQAGGSLRLTCAASGITFGGYAMGWYRQAPGKERELVATITSGGSTYYADSVKGRFTISRDNAKNTVYLQMNSLKPEDTAVYYCNAVYNYWFWGGYWHRPNARGDYWGQGTQVTVSS | high polyreactivity
41 | QVQLVESGGGLVQAGGSLRLTCAASGITFVYNAMGWYRQAPGKERELVAAISWRGGSTYYADYVKGRFTISRDNAKNTVYLQMNSLKPEDTAVYYCNNLPTYPDYGYDSWGQGTQVTVSS | high polyreactivity
42 | QVQLVESGGGLVQAGGSLRLTCAASGLIFGYNAMGWYRQAPGKEREFVAGISVIDGRTYYADSVKGRFTISRDNAKNTVYLQMISLKPEDTAVYYCAADRWYKYYFLTYGYWGQGTQVTVSS | low polyreactivity
43 | QVQLVESGGGLVQAGGSLRLTCAASGLSSLRMLWDGIDRRLGKKGSWLPLLTSGGDSTNYADSVKGRFTISRDTAKNTVYLQIISLKPEDTAVYYCAADLDYPYGYWGQGTQVTVSS | low polyreactivity
